Experimental data: patent US20240374644A1

Target: CD8 on peripheral blood mononuclear cells (human)
Assay: flow cytometry on PBMCs, anti-GST antibody

Sequence of CD8 on peripheral blood mononuclear cells (human) (P01732 22-235, chain 1 of 2): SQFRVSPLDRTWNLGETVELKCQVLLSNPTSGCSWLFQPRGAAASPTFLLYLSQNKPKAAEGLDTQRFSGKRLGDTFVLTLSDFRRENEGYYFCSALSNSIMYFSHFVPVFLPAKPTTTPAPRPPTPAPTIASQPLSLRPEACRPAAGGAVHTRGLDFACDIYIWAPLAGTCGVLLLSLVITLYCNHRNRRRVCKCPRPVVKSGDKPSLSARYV
Sequence of CD8 on peripheral blood mononuclear cells (human) (P10966 22-210, chain 2 of 2, further chain): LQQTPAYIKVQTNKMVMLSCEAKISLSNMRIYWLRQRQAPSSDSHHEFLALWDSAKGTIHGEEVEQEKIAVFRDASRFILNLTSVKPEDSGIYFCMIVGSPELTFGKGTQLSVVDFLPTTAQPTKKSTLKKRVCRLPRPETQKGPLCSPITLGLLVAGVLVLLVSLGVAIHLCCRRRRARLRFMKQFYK

percentage of peripheral blood mononuclear cells positive (anti-GST): 48.8 to 55.2%
Substance: CD8 BiTE (K8Bi), anti-HERV-K 6H5 scFv linked to anti-CD8 (OKT8) scFv (bispecific antibody)
